US20080220446A1, “Method for Detecting and/or Removing Protein and/or Peptide Comprising a Cross-Beta Structure From an Aqueous Solution Comprising a Protein” (priority 2005, published 2008)

Assays:
tPA = tPA (Homo sapiens, UniProt P00750); experiment: Biacore surface plasmon resonance, binding to immobilized tPA; conditions: Hb-AGE 32, albumin-AGE 3.9, amyloid γ-globulins 62.5 μg ml^−1
Protocol: (§1) Binding of cross-β structure containing peptides/proteins was studied using surface plasmon resonance technology with a Biacore 2000 apparatus (Biacore AB, Uppsala, Sweden). A standardized amine coupling procedure was used to couple proteins with F domains to a CM5 chip (Biacore AB, Uppsala, Sweden). First, the dextran surface of the chips was activated by a 35 μl injection with a 1:1 mixture of 0.1 M N-hydroxysuccinimide (NHS) and 0.4 M N-ethyl-N′-(dimethylaminopropyl)carbodiimide (EDC) at a flow rate of 5 μl min.^−1. Then, the proteins were covalently coupled to the activated dextran surface. Remaining activated groups in each of the four flow channels were blocked by injection of 35 μl of 1 M ethanolamine hydrochloride pH 8.5. EDC, NHS and ethanolamine hydrochloride were obtained from Biacore. On one chip, on channels 1 to 4, buffer (reference channel), the soluble extracellular part of receptor for advanced glycation endproducts (sRAGE), tPA and K2P-tPA were immobilized. […] Binding of albumin-AGE was determined with a solution of 3.9 μg ml^−1 albumin-AGE in running buffer. albumin-AGE was filtered on a Millex-GV 0.22 μm filter unit (Millipore). […] Binding of Hb-AGE was also tested after centrifugation for 10 min. at 16,000*g alternative to filtration. tPA activation before and after filtration was assessed with a Plg-activation assay. […]

sRAGE = target: T1, sRAGE (Homo sapiens, UniProt Q15109); experiment: Biacore surface plasmon resonance, binding to immobilized sRAGE; conditions: Hb-AGE 32, albumin-AGE 3.9, amyloid γ-globulins 62.5 μg ml^−1
T1 construct: comprises three domains spanning amino-acid residues 23-325; His-tag (N); thrombin cleavage site (N); made in house; host or cells: 293E cells (printed as 'hamster embryonic kidney cells')
T1 sequence (Q15109 23-325): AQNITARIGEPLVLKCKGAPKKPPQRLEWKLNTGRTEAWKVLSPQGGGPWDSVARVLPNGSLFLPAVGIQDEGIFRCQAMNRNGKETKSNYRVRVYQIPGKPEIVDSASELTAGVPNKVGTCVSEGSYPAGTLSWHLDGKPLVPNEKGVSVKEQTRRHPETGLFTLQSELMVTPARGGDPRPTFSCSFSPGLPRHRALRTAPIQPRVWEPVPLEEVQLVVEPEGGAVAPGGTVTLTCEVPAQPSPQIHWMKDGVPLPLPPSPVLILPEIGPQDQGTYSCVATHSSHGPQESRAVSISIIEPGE
Protocol: as §1

fibronectin F4,5 = target: T2, fibronectin F4,5 (Homo sapiens, UniProt P02751); experiment: Affinity determination ELISA, fibronectin F4,5 on coated (mis)folded proteins; type: binding; conditions: coated protein as labelled
T2 construct: human fibronectin finger 4,5 (Fn F4,5) fragment; made in house; host or cells: HEK293E
T2 sequence (P02751 182-276 limits assumed): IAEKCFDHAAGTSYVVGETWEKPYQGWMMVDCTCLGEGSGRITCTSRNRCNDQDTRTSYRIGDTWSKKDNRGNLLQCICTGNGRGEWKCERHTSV
From the text: (§2) Synthetic genes of human BiP, human fibronectin finger 4,5 (Fn F4,5) fragment, and human tissue-type plasminogen activator finger EGF (tPA F-EGF) fragment were ordered from Geneart (Regensburg, Germany). These DNA constructs were digested using BamHI and NotI, and ligated into vector pABC674 (ABC-expression facility, Utrecht University, The Netherlands), which contains a carboxy-terminal FLAG-tag—His-tag. HEK293E cells were transiently transfected with these constructs using the polyethylene-imine method, and grown for 5-6 days.
(§3) Denatured proteins and their native controls BSA (Sigma, A7906), glycated BSA, Hb (Sigma, H7605), glycated Hb, ovalbumin (Sigma, A6741), heat-denatured misfolded ovalbumin, human γ-globulins (Sigma, G4386), heat-denatured misfolded γ-globulins, alkyl-γ-globulins, lysozyme (ICN Biochemicals, 100831) and alkyl-lysozyme were coated on ELISA plates (Greiner Microlon high-binding, 655092) in 50 mM NaHCO3-buffer pH 9.6. The plates were blocked using Blocking reagent (Roche 1112589). […] Bound protein is detected by the FLAG-tag using 1:3000 anti-FLAG-HRP (Sigma A-8592) in PBS-T, or by 1:1000 Ni-NTA-HRP (Qiagen 34530) in PBS-T. The HRP reaction Is performed using the TMB substrate (Biosource 4501103 or Tebu Bio 101TMB100-500), stopped using 10% H2SO4 and absorbance was measured at 450 nm.

tPA F-EGF = target: T3, tPA F-EGF (Homo sapiens, UniProt P00750); experiment: Affinity determination ELISA, tPA F-EGF on coated (mis)folded proteins; type: binding; conditions: coated protein as labelled, relative to native control
T3 construct: made in house; host or cells: HEK293E
T3 sequence (P00750 36-120 limits assumed): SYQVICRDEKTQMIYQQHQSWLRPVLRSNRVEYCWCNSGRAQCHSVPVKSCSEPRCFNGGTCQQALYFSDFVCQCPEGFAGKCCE
From the text: as §2, §3

tPA, sequence (P00750 36-562): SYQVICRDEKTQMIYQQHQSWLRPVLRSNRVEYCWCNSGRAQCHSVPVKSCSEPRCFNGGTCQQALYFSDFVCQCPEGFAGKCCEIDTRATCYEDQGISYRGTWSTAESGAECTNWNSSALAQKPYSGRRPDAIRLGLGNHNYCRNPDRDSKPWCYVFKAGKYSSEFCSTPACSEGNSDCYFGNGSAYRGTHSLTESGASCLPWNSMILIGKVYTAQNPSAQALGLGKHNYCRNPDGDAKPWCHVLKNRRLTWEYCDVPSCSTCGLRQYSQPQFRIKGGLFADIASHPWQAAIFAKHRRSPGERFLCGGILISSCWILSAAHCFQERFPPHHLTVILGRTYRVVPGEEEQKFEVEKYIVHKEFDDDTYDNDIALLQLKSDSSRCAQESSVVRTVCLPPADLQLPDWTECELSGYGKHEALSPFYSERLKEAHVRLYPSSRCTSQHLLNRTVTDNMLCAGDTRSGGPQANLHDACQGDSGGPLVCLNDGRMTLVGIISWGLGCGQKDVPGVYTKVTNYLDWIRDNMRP

- binding to immobilized tPA (tPA): bind
- binding to immobilized sRAGE (sRAGE): bind
- affinity for fibronectin F4,5 (fibronectin F4,5): High affinities
- binding of tPA F-EGF (tPA F-EGF): High binding affinities
Substance: albumin-AGE: advanced glycation end-product modified bovine serum albumin
